B1: Speckle-type POZ protein (Homo sapiens), O43791 (parent)
chain: MSRVPSPPPPAEMSSGPVAESWCYTQIKVVKFSYMWTINNFSFCREEMGEVIKSSTFSSGANDKLKWCLRVNPKGLDEESKDYLSLYLLLVSCPKSEVRAKFKFSILNAKGEETKAMESQRAYRFVQGKDWGFKKFIRRDFLLDEANGLLPDDKLTLFCEVSVVQDSVNISGQNTMNMVKVPECRLADELGGLWENSRFTDCCLCVAGQEFQAHKAILAARSPVFSAMFEHEMEESKKNRVEINDVEPEVFKEMMCFIYTGKAPNLDKMADDLLAAADKYALERLKVMCEDALCSNLSVENAAEILILADLHSADQLKTQAVDFINYHASDVLETSGWKSMVVSHPHLVAEAYRSLASAQCPFLGPPRKRLKQS
partner: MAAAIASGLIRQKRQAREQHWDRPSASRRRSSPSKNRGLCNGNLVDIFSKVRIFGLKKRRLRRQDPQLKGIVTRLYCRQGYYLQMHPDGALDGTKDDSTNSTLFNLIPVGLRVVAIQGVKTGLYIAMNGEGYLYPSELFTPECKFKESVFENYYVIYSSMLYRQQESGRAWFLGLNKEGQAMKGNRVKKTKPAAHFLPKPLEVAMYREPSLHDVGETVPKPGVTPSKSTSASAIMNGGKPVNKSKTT
B2: Speckle-type POZ protein (Homo sapiens), O43791 (parent)
chain: B1 chain
partner: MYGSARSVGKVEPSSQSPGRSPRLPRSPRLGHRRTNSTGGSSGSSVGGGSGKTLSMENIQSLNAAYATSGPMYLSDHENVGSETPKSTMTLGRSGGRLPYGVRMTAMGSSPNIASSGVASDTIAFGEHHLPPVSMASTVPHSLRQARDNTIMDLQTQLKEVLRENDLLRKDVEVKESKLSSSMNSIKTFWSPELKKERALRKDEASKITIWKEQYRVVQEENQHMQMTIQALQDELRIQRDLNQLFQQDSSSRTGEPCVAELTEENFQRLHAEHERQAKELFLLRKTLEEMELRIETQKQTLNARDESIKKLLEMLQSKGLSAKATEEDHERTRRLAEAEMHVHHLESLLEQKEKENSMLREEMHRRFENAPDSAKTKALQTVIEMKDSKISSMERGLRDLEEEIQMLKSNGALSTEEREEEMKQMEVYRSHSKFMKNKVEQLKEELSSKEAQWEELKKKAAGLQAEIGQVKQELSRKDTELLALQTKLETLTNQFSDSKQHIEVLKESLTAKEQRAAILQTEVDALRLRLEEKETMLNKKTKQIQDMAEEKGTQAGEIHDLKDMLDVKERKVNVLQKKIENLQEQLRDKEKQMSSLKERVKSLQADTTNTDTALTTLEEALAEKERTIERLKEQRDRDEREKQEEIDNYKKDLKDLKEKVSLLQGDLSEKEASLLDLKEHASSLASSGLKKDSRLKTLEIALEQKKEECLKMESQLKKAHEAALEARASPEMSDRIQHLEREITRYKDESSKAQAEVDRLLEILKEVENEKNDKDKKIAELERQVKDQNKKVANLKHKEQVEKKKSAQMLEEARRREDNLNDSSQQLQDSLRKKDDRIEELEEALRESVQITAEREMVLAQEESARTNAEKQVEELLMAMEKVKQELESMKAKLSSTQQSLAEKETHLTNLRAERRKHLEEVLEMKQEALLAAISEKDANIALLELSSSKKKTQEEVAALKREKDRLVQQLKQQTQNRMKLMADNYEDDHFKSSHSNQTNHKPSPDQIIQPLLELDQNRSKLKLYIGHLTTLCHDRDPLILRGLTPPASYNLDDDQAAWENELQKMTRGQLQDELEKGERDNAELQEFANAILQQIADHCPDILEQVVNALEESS
B3: Speckle-type POZ protein (Homo sapiens), O43791 (parent)
chain: B1 chain
partner: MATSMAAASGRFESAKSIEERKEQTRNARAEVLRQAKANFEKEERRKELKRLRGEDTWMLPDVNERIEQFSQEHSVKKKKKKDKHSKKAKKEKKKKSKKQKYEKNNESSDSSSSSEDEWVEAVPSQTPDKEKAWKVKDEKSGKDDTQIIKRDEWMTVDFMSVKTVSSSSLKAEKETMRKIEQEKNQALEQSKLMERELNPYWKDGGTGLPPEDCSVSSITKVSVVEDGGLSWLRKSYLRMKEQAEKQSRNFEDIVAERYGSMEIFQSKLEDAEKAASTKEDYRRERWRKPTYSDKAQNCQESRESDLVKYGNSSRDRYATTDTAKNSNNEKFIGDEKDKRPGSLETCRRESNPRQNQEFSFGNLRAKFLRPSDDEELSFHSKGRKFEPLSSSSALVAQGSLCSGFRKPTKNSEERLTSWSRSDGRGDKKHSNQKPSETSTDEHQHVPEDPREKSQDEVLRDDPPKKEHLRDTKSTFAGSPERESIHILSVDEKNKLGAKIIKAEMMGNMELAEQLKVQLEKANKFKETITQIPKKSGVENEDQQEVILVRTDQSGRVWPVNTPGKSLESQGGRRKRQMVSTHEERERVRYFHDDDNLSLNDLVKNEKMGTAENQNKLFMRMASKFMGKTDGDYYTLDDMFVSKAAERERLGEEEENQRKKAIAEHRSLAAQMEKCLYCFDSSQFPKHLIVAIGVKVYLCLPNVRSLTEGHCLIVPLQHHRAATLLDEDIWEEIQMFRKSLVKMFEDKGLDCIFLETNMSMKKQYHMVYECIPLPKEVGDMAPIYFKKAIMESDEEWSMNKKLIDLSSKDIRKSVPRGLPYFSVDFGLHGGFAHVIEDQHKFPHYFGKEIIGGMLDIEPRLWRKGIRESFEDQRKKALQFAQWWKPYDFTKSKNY
B4: Speckle-type POZ protein (Homo sapiens), O43791 (parent)
chain: B1 chain
partner: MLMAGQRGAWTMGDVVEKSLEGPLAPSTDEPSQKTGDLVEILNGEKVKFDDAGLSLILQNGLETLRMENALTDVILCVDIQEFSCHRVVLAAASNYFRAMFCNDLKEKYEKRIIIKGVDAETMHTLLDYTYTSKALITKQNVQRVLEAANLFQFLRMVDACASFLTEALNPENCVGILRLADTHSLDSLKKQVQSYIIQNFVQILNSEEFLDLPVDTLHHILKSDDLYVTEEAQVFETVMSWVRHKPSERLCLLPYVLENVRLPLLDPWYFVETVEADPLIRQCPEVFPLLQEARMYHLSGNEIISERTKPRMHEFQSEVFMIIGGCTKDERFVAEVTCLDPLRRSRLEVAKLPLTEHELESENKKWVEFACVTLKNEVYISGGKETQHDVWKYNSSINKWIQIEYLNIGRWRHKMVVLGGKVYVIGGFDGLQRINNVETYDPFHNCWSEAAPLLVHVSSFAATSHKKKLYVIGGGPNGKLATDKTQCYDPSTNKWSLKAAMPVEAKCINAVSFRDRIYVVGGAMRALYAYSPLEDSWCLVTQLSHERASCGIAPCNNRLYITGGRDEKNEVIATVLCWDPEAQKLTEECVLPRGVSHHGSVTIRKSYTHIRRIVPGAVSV
B5: Speckle-type POZ protein (Homo sapiens), O43791 (parent)
chain: B1 chain
partner: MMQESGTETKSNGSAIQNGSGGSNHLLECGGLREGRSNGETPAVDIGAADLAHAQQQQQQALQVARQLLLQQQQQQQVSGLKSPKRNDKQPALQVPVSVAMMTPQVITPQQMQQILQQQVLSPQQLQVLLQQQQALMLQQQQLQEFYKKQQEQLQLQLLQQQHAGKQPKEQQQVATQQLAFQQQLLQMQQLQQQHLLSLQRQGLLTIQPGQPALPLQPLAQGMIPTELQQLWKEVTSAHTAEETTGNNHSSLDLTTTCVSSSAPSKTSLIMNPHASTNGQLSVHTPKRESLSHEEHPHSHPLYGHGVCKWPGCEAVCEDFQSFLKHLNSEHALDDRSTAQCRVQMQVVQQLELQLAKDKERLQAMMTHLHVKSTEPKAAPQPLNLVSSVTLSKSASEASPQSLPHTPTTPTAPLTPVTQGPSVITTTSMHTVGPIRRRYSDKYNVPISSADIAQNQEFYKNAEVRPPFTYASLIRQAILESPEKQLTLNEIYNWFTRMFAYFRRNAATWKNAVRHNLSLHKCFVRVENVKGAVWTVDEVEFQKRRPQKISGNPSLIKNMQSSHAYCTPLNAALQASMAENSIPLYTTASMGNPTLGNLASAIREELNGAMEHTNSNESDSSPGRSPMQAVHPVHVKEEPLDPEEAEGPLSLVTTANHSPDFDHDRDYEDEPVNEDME
B6: Speckle-type POZ protein (Homo sapiens), O43791 (parent)
chain: B1 chain
partner: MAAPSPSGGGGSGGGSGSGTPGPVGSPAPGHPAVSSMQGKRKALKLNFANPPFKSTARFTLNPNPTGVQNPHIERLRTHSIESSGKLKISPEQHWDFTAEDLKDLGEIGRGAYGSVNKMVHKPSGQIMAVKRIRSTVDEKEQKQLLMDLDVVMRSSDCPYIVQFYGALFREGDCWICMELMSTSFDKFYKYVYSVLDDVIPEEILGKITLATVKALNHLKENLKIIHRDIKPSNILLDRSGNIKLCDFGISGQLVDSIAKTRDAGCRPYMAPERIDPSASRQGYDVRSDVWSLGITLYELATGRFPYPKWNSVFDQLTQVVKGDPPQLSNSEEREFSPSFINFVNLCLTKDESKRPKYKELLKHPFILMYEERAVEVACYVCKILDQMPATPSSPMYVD
B7: Speckle-type POZ protein (Homo sapiens), O43791 (parent)
chain: B1 chain
partner: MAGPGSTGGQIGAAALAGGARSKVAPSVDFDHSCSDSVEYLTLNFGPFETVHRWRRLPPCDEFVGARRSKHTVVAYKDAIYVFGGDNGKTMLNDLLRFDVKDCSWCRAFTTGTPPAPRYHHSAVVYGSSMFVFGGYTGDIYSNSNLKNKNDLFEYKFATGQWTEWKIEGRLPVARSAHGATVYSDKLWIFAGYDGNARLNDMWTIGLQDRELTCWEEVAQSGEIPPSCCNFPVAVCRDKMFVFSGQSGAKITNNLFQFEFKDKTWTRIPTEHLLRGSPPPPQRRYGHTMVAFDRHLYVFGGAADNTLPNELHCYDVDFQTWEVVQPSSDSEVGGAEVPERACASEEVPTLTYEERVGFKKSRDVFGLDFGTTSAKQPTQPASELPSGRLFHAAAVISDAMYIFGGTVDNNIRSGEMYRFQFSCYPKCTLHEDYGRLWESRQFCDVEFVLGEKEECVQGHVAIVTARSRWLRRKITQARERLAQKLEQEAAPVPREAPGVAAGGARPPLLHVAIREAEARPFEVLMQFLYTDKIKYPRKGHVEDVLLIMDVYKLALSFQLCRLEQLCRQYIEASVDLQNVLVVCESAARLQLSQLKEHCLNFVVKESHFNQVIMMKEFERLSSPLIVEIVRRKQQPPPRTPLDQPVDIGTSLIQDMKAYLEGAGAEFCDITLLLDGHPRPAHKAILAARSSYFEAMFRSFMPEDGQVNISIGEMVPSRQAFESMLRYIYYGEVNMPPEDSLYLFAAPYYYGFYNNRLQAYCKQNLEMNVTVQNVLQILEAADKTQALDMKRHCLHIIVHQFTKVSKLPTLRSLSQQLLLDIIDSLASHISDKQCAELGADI

Variants of: B1
Conditions: with fgf14_human FGF14, Q92915

effect of a mutation on the interaction	Variant
with no effect	F133L

Variants of: B1
Conditions: with fgf14_human FGF14, Q92915
Remark: another data set of the same source

effect of a mutation on the interaction	Variant
with no effect	Y87C

Variants of: B2
Conditions: with rb6i2_human ERC1, Q8IUD2

effect of a mutation on the interaction	Variant
with no effect	F102C

Variants of: B2
Conditions: with rb6i2_human ERC1, Q8IUD2
Remark: another data set of the same source

effect of a mutation on the interaction	Variant
with no effect	Y87C

Variants of: B2
Conditions: with rb6i2_human ERC1, Q8IUD2
Remark: another data set of the same source

effect of a mutation on the interaction	Variant
with no effect	F133V

Variants of: B2
Conditions: with rb6i2_human ERC1, Q8IUD2
Remark: another data set of the same source

effect of a mutation on the interaction	Variant
with no effect	F133L

Variants of: B3
Conditions: with CWF19L2, Q2TBE0

effect of a mutation on the interaction	Variant
with no effect	Y87C

Variants of: B3
Conditions: with CWF19L2, Q2TBE0
Remark: another data set of the same source

effect of a mutation on the interaction	Variant
with no effect	F102C

Variants of: B3
Conditions: with CWF19L2, Q2TBE0
Remark: another data set of the same source

effect of a mutation on the interaction	Variant
with no effect	F133L

Variants of: B3
Conditions: with CWF19L2, Q2TBE0
Remark: another data set of the same source

effect of a mutation on the interaction	Variant
with no effect	F133V

Variants of: B4
Conditions: with klhl6_human KLHL6, Q8WZ60

effect of a mutation on the interaction	Variant
with no effect	F133L

Variants of: B4
Conditions: with klhl6_human KLHL6, Q8WZ60
Remark: another data set of the same source

effect of a mutation on the interaction	Variant
with no effect	F133V

Variants of: B4
Conditions: with klhl6_human KLHL6, Q8WZ60
Remark: another data set of the same source

effect of a mutation on the interaction	Variant
with no effect	Y87C

Variants of: B4
Conditions: with klhl6_human KLHL6, Q8WZ60
Remark: another data set of the same source

effect of a mutation on the interaction	Variant
with no effect	F102C

Variants of: B5
Conditions: with foxp1_human FOXP1, Q9H334

effect of a mutation on the interaction	Variant
with no effect	F133L

Variants of: B5
Conditions: with foxp1_human FOXP1, Q9H334
Remark: another data set of the same source

effect of a mutation on the interaction	Variant
causing an interaction	F133V

Variants of: B5
Conditions: with foxp1_human FOXP1, Q9H334
Remark: another data set of the same source

effect of a mutation on the interaction	Variant
with no effect	F102C

Variants of: B5
Conditions: with foxp1_human FOXP1, Q9H334
Remark: another data set of the same source

effect of a mutation on the interaction	Variant
with no effect	Y87C

Variants of: B6
Conditions: with mp2k4_human MAP2K4, P45985

effect of a mutation on the interaction	Variant
with no effect	F102C

Variants of: B6
Conditions: with mp2k4_human MAP2K4, P45985
Remark: another data set of the same source

effect of a mutation on the interaction	Variant
with no effect	Y87C

Variants of: B7
Conditions: with lztr1_human LZTR1, Q8N653

effect of a mutation on the interaction	Variant
with no effect	F102C

Variants of: B7
Conditions: with lztr1_human LZTR1, Q8N653
Remark: another data set of the same source

effect of a mutation on the interaction	Variant
with no effect	Y87C

Variants of: B7
Conditions: with lztr1_human LZTR1, Q8N653
Remark: another data set of the same source

effect of a mutation on the interaction	Variant
with no effect	F133V

— IntAct's records for PubMed 35512704
